Source: paper PMC7948490 (2020)
Values belong to the binder of their own block, whether it stands above or below them.

Key:
[1] = target: T1, F-actin (alpha-actin, skeletal muscle) (Gallus gallus, UniProt P68139); experiment: kinetic global fit (KinTek Explorer)
[2] = target: T1, F-actin (alpha-actin, skeletal muscle); experiment: kinetic global fit (KinTek Explorer), no nucleotide
[3] = target: T1, F-actin (alpha-actin, skeletal muscle); experiment: stopped-flow pyrene-actin fluorescence (k-A/k+A), 20 °C, no nucleotide

Kd [1]: 10800 nM
Kd [2]: 13 nM
Kd [3]: 13.7 nM
B1: Myosin-1C0-ΔTH1 isoform C0 lacking TH1 domain (protein)
chain: MESALTARDRVGVQDFVLLENFTSEAAFIENLRRRFRENLIYTYIGPVLVSVNPYRDLQIYSRQHMERYRGVSFYEVPPHLFAVADTVYRALRTERRDQAVMISGESGAGKTEATKRLLQFYAETCPAPERGGAVRDRLLQSNPVLEAFGNAKTLRNDNSSRFGKYMDVQFDFKGAPVGGHILSYLLEKSRVVHQNHGERNFHIFYQLLEGGEEETLRRLGLERNPQSYLYLVKGQCAKVSSINDKSDWKVVRKALTVIDFTEDEVEDLLSIVASVLHLGNIHFAANEESNAQVTTENQLKYLTRLLSVEGSTLREALTHRKIIAKGEELLSPLNLEQAAYARDALAKAVYSRTFTWLVGKINRSLASKDVESPSWRSTTVLGLLDIYGFEVFQHNSFEQFCINYCNEKLQQLFIELTLKSEQEEYEAEGIAWEPVQYFNNKIICDLVEEKFKGIISILDEECLRPGEATDLTFLEKLEDTVKHHPHFLTHKLADQRTRKSLGRGEFRLLHYAGEVTYSVTGFLDKNNDLLFRNLKETMCSSKNPIMSQCFDRSELSDKKRPETVATQFKMSLLQLVEILQSKEPAYVRCIKPNDAKQPGRFDEVLIRHQVKYLGLLENLRVRRAGFAYRRKYEAFLQRYKSLCPETWPTWAGRPQDGVAVLVRHLGYKPEEYKMGRTKIFIRFPKTLFATEDALEVRRQSLATKIQAAWRGFHWRQKFLRVKRSAICIQSWWRGTLGRRKAAKRKWAAQTIRRLIRGFVLRHAPRCPENAFFLDHVRTSFLLNLRRQLPQNVLDTSWPTPPPALREASELLRELCIKNMVWKYCRSISPEWKQQLQQKAVASEIFKGK

Kd [1]: 22200 nM
Kd [2]: 16.3 nM
Kd [3]: 16.9 nM
B2: Myosin-1C35-ΔTH1 isoform C35 lacking TH1 domain (protein)
chain: MALQVELVPTGEIIRVVHPHRPCKLALGSDGVRVTMESALTARDRVGVQDFVLLENFTSEAAFIENLRRRFRENLIYTYIGPVLVSVNPYRDLQIYSRQHMERYRGVSFYEVPPHLFAVADTVYRALRTERRDQAVMISGESGAGKTEATKRLLQFYAETCPAPERGGAVRDRLLQSNPVLEAFGNAKTLRNDNSSRFGKYMDVQFDFKGAPVGGHILSYLLEKSRVVHQNHGERNFHIFYQLLEGGEEETLRRLGLERNPQSYLYLVKGQCAKVSSINDKSDWKVVRKALTVIDFTEDEVEDLLSIVASVLHLGNIHFAANEESNAQVTTENQLKYLTRLLSVEGSTLREALTHRKIIAKGEELLSPLNLEQAAYARDALAKAVYSRTFTWLVGKINRSLASKDVESPSWRSTTVLGLLDIYGFEVFQHNSFEQFCINYCNEKLQQLFIELTLKSEQEEYEAEGIAWEPVQYFNNKIICDLVEEKFKGIISILDEECLRPGEATDLTFLEKLEDTVKHHPHFLTHKLADQRTRKSLGRGEFRLLHYAGEVTYSVTGFLDKNNDLLFRNLKETMCSSKNPIMSQCFDRSELSDKKRPETVATQFKMSLLQLVEILQSKEPAYVRCIKPNDAKQPGRFDEVLIRHQVKYLGLLENLRVRRAGFAYRRKYEAFLQRYKSLCPETWPTWAGRPQDGVAVLVRHLGYKPEEYKMGRTKIFIRFPKTLFATEDALEVRRQSLATKIQAAWRGFHWRQKFLRVKRSAICIQSWWRGTLGRRKAAKRKWAAQTIRRLIRGFVLRHAPRCPENAFFLDHVRTSFLLNLRRQLPQNVLDTSWPTPPPALREASELLRELCIKNMVWKYCRSISPEWKQQLQQKAVASEIFKGK
